Results on four molecules are retold here after US20240352098A1 (AstraZeneca / MedImmune, published 2024).

A word on the IC50: it is the point on the concentration scale where inhibition reaches its midpoint. A low value points to inhibition by little substance. The term Kd denotes a measure of binding affinity in units of concentration. Low readings indicate tighter binding, high ones weaker binding. For orientation: koff means the rate constant with which the complex falls apart. Usually kon stands for the second-order rate constant of association. High values mean faster complex formation, low ones slower complex formation.

In assay [1] the target is T1, ClfA (Staphylococcus aureus).
T1 chain: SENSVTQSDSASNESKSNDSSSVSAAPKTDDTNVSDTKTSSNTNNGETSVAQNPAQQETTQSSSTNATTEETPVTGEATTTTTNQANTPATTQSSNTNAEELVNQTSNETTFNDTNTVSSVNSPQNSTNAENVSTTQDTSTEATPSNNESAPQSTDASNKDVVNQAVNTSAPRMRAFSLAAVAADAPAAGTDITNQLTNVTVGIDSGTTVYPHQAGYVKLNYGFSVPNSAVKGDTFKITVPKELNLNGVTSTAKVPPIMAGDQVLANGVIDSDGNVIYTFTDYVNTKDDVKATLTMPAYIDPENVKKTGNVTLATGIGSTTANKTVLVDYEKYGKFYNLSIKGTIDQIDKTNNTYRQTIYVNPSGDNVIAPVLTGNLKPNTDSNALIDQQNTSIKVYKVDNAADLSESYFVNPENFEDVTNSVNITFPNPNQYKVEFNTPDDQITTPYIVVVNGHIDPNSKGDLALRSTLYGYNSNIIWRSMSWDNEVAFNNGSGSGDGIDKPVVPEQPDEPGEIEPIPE
Kind of assay: fibrinogen binding inhibition ('Fg IH' / 'fibrinogen assay'); blocked ligand fibrinogen; sample after 1 week of light exposure; ClfA genotype not stated; printed in both tables.

The target in assay [2] is T1, ClfA. As to the kind of experiment: fibrinogen binding inhibition ('Fg IH' / 'fibrinogen assay'); blocked ligand fibrinogen; sample before light exposure; ClfA genotype not stated; printed in both tables.
For assay [3], the target named is T1, ClfA. As to the kind of experiment: fibrinogen binding inhibition ('Fg IH' / 'fibrinogen assay'); blocked ligand fibrinogen; sample after 2 weeks of light exposure; ClfA genotype not stated; printed in both tables.
Assay [4] has as its target T1, ClfA. As to the kind of experiment: fibrinogen binding inhibition ('IC50 (ug/ml) fibrinogen assay'); blocked ligand fibrinogen; sample after 2 weeks of light exposure; ClfA genotype not stated; printed only in the right-hand table.
Assay [5] has as its target T2, S. aureus clumping factor A, founder genotype ClfA004 (Staphylococcus aureus).
T2 construct: range 221-559
As to the kind of experiment: Biacore. For orientation: In SPR one partner is held on a chip, and binding of the other changes the refractive index at the surface.

In assay [6] the target is T3, S. aureus clumping factor A, founder genotype ClfA002 (Staphylococcus aureus, UniProt Q99VJ4 221-559).
T3 sequence: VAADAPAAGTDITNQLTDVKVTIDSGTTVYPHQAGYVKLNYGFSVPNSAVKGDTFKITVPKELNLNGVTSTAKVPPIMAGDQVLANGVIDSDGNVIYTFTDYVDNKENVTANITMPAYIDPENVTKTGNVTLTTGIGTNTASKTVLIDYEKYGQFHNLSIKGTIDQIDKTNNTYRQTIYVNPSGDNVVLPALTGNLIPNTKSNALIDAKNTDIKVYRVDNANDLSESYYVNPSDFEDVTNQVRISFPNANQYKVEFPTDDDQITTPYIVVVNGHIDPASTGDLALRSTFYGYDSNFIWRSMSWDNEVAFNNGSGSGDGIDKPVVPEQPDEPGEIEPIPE
As to the kind of experiment: Biacore.

Assay [7] deals with T2, S. aureus clumping factor A, founder …. Kind of assay: affinity kinetics, method not named (Table 1).
Assay [8] concerns the target T3, S. aureus clumping factor A, founder …. As to the kind of experiment: affinity kinetics, method not named (Table 1).
In assay [9] the target is T2, S. aureus clumping factor A, founder ….
The target in assay [10] is T3, S. aureus clumping factor A, founder ….
The target of assay [11] is T2, S. aureus clumping factor A, founder …. As to the kind of experiment: fibrinogen binding inhibition assay (FIG. 1B).
Assay [12] concerns the target T3, S. aureus clumping factor A, founder …. As to the kind of experiment: fibrinogen binding inhibition assay (FIG. 1B).
Assay [13] addresses T2, S. aureus clumping factor A, founder …. Kind of assay: inhibition of ClfA binding to fibrinogen.
For assay [14], the target named is T3, S. aureus clumping factor A, founder …. Kind of assay: inhibition of ClfA binding to fibrinogen.
For assay [15], the target named is T2, S. aureus clumping factor A, founder …. As to the kind of experiment: Biacore, antibody captured, ClfA as sample.
The target in assay [16] is T3, S. aureus clumping factor A, founder …. Kind of assay: Biacore, antibody captured, ClfA as sample.
The target in assay [17] is T2, S. aureus clumping factor A, founder …. Kind of assay: ELISA, inhibition of ClfA binding to immobilised fibrinogen.
Assay [18] concerns the target T3, S. aureus clumping factor A, founder …. The assay is described as above.
The target in assay [19] is T2, S. aureus clumping factor A, founder …. As to the kind of experiment: fibrinogen binding inhibition assay (ClfA binding to fibrinogen).
Assay [20] has as its target T3, S. aureus clumping factor A, founder …. The assay is described as above.

B1: N3F (antibody)
heavy: QVQLQESGPGLVKPSETLSLTCTVSGGSIQNSYWSWIRQPPGKGLEWIGYLYSSGRTNYTPSLKSRVTISVDTSKNQFSLKLSSVTAADTAVYYCARTHLGGFHYGGGFWFDPWGQGTLVTVSSASTKGPSVFPLAPSSKSTSGGTAALGCLVKDYFPEPVTVSWNSGALTSGVHTFPAVLQSSGLYSLSSVVTVPSSSLGTQTYICNVNHKPSNTKVDKRVEPKSCDKTHTCPPCPAPELLGGPSVFLFPPKPKDTLMISRTPEVTCVVVDVSHEDPEVKFNWYVDGVEVHNAKTKPREEQYNSTYRVVSVLTVLHQDWLNGKEYKCKVSNKALPAPIEKTISKAKGQPREPQVYTLPPSREEMTKNQVSLTCLVKGFYPSDIAVEWESNGQPENNYKTTPPVLDSDGSFFLYSKLTVDKSRWQQGNVFSCSVMHEACSFHLCQKSLSLSPGK
light: DIQMTQSPSSLSASVGDRVTITCRASQSITSYLNWYQQKPGKAPKLLIYASSSLQSGVPSRFSGSGSGTDFTLTISSLQPEDFATYYCQESYSTPPTFGQGTKVEIKRTVAAPSVFIFPPSDEQLKSGTASVVCLLNNFYPREAKVQWKVDNALQSGNSQESVTEQDSKDSTYSLSSTLTLSKADYEKHKVYACEVTHQGLSSPVTKSFNRGEC
notes: copies: 2 + 2
As to B1, the IC50 in assay [1] is 19.9 µg/mL; in assay [2] it was 9.95 µg/mL; in assay [3], 27.8 µg/mL.

B2: N3Y (antibody)
heavy chain: QVQLQESGPGLVKPSETLSLTCTVSGGSIQNSYWSWIRQPPGKGLEWIGYLYSSGRTNYTPSLKSRVTISVDTSKNQFSLKLSSVTAADTAVYYCARTHLGGFHYGGGFWFDPWGQGTLVTVSSASTKGPSVFPLAPSSKSTSGGTAALGCLVKDYFPEPVTVSWNSGALTSGVHTFPAVLQSSGLYSLSSVVTVPSSSLGTQTYICNVNHKPSNTKVDKRVEPKSCDKTHTCPPCPAPELLGGPSVFLFPPKPKDTLMISRTPEVTCVVVDVSHEDPEVKFNWYVDGVEVHNAKTKPREEQYNSTYRVVSVLTVLHQDWLNGKEYKCKVSNKALPAPIEKTISKAKGQPREPQVYTLPPSREEMTKNQVSLTCLVKGFYPSDIAVEWESNGQPENNYKTTPPVLDSDGSFFLYSKLTVDKSRWQQGNVFSCSVMHEACSYHLCQKSLSLSPGK
light chain: DIQMTQSPSSLSASVGDRVTITCRASQSITSYLNWYQQKPGKAPKLLIYASSSLQSGVPSRFSGSGSGTDFTLTISSLQPEDFATYYCQESYSTPPTFGQGTKVEIKRTVAAPSVFIFPPSDEQLKSGTASVVCLLNNFYPREAKVQWKVDNALQSGNSQESVTEQDSKDSTYSLSSTLTLSKADYEKHKVYACEVTHQGLSSPVTKSFNRGEC
As to B2, the figures for the IC50 in assay [1], in [4] and in [2] were 9.2 µg/mL, 12.7 µg/mL and 6.28 µg/mL, respectively.

B3: SAR114 anti-ClfA monoclonal antibody (antibody)
heavy: not shown
light: DIQMTQSPSSLSASVGDRVTITCRASQSITSYLNWYQQKPGKAPKLLIYASSSLQSGVPSRFSGSGSGTDFTLTISSLQPEDFATYYCQESYSTPPTFGQGTKVEIKRTVAAPSVFIFPPSDEQLKSGTASVVCLLNNFYPREAKVQWKVDNALQSGNSQESVTEQDSKDSTYSLSSTLTLSKADYEKHKVYACEVTHQGLSSPVTKSFNRGEC
Turning to B3, the “fold tighter binding (KD) than SAR114-N3” value in assay [5] and in assay [6] was approximately 10 fold throughout. Moreover, the Kd was determined as 0.00115 nM in assay [7], 0.0448 nM in assay [8], 0.0209 nM in assay [15] and 0.0477 nM in [16]. For the same molecule, the koff turned out to be 6.46e-06 s⁻¹ in assay [7], 9.53e-05 s⁻¹ in assay [8], 6.21e-05 s⁻¹ in assay [15] and 0.000182 s⁻¹ in [16]. For the same molecule, the association rate constant (kon) in [7] is 5.62e+06 M⁻¹ s⁻¹; in [8], 2.13e+06 M⁻¹ s⁻¹; in assay [15], 2.97e+06 M⁻¹ s⁻¹; in assay [16], 3.82e+06 M⁻¹ s⁻¹. In addition, the “IC50 (read off the curve)” value is approximately 30000 nM in assay [9] and approximately 10000 nM in assay [10]. Also, the IC50 was approximately 20000 nM in assay [11]; approximately 20000 nM in assay [12]; 1.72 µg/mL in [13]; 2.91 µg/mL in assay [14]; 8.08 nM in assay [17]; 14.3 nM in assay [18]. The figures for the IC50 in [19] and in [20] were 1.63 µg/mL and 1.16 µg/mL, respectively.

B4: SAR114-N3 (antibody)
heavy: QVQLQESGPGLVKPSETLSLTCTVSGGSIQNSYWSWIRQPPGKGLEWIGYLYSSGRTNYTPSLKSRVTISVDTSKNQFSLKLSSVTAADTAVYYCARTHLGGFHYGGGFWFDPWGQGTLVTVSSASTKGPSVFPLAPSSKSTSGGTAALGCLVKDYFPEPVTVSWNSGALTSGVHTFPAVLQSSGLYSLSSVVTVPSSSLGTQTYICNVNHKPSNTKVDKRVEPKSCDKTHTCPPCPAPELLGGPSVFLFPPKPKDTLMISRTPEVTCVVVDVSHEDPEVKFNWYVDGVEVHNAKTKPREEQYNSTYRVVSVLTVLHQDWLNGKEYKCKVSNKALPAPIEKTISKAKGQPREPQVYTLPPSREEMTKNQVSLTCLVKGFYPSDIAVEWESNGQPENNYKTTPPVLDSDGSFFLYSKLTVDKSRWQQGNVFSCSVMHEACSWHLCQKSLSLSPGK
light: DIQMTQSPSSLSASVGDRVTITCRASQSITSYLNWYQQKPGKAPKLLIYASSSLQSGVPSRFSGSGSGTDFTLTISSLQPEDFATYYCQESYSTPPTFGQGTKVEIKRTVAAPSVFIFPPSDEQLKSGTASVVCLLNNFYPREAKVQWKVDNALQSGNSQESVTEQDSKDSTYSLSSTLTLSKADYEKHKVYACEVTHQGLSSPVTKSFNRGEC
Consider B4, for which the IC50 in assay [13] stood at 2.52 µg/mL. In [14], the IC50 was 3.11 µg/mL. Also, in assay [15], the dissociation constant Kd came out at 0.316 nM, the koff was determined as 0.000756 s⁻¹ and the kon worked out at 2.39e+06 M⁻¹ s⁻¹. In assay [16], this molecule displayed a Kd of 0.265 nM, a koff of 0.00104 s⁻¹ and a kon of 3.92e+06 M⁻¹ s⁻¹.
